Measurements reported in US20260242735A1 (UNIVERSIT T BASEL, published 2026).
Each block holds one binder with its values, some of them ahead of it.

Legend:
Experiment in all cases: flow cytometry, transfected cells
human CD33 K52S = human CD33 K52S (human, UniProt P20138 18-364)
human CD33 Y49Q = human CD33 Y49Q (human, UniProt P20138 18-364)
human CD33 Y49R = human CD33 Y49R (human, UniProt P20138 18-364)
human CD33 Y49G = human CD33 Y49G (human, UniProt P20138 18-364)
human CD33 Y49I = human CD33 Y49I (human, UniProt P20138 18-364)
human CD33 Y49I, sequence (P20138 18-364 Y49I limits assumed): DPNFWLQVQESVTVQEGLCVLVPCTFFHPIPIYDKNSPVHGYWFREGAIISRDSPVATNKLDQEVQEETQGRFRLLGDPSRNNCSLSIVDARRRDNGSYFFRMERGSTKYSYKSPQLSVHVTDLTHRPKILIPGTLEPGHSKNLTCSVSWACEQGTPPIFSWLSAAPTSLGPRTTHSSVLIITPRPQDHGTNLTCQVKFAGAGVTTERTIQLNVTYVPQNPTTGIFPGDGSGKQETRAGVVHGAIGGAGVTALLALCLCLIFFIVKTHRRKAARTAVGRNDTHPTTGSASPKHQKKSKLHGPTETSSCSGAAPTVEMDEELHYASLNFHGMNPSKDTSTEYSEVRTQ

human CD33 Y49L = human CD33 Y49L (human, UniProt P20138 18-364)
human CD33 Y49L, sequence (P20138 18-364 Y49L limits assumed): as the sequence (P20138 18-364 Y49I limits assumed) above, with I32L counted along it

human CD33 K52Y = human CD33 K52Y (human, UniProt P20138 18-364)
human CD33 K52Y, sequence (P20138 18-364 K52Y limits assumed): as the sequence (P20138 18-364 Y49I limits assumed) above, with I32Y, K35Y counted along it

human CD33 K52T = human CD33 K52T (human, UniProt P20138 18-364)
human CD33 K52T, sequence (P20138 18-364 K52T limits assumed): as the sequence (P20138 18-364 Y49I limits assumed) above, with I32Y, K35T counted along it

human CD33 K52I = human CD33 K52I (human, UniProt P20138 18-364)
human CD33 K52I, sequence (P20138 18-364 K52I limits assumed): as the sequence (P20138 18-364 Y49I limits assumed) above, with I32Y, K35I counted along it

human CD33 P48L = human CD33 P48L (human, UniProt P20138 18-364)
human CD33 P48L, sequence (P20138 18-364 P48L limits assumed): as the sequence (P20138 18-364 Y49I limits assumed) above, with P31L, I32Y counted along it

human CD33 P48K = human CD33 P48K (human, UniProt P20138 18-364)
human CD33 P48K, sequence (P20138 18-364 P48K limits assumed): as the sequence (P20138 18-364 Y49I limits assumed) above, with P31K, I32Y counted along it

human CD33 Y50R = human CD33 Y50R (human, UniProt P20138 18-364)
human CD33 Y50R, sequence (P20138 18-364 Y50R limits assumed): as the sequence (P20138 18-364 Y49I limits assumed) above, with I32Y, Y33R counted along it

human CD33 S131F = human CD33 S131F (human, UniProt P20138 18-364)
human CD33 S131F, sequence (P20138 18-364 S131F limits assumed): as the sequence (P20138 18-364 Y49I limits assumed) above, with I32Y, S114F counted along it

human CD33 S131M = human CD33 S131M (human, UniProt P20138 18-364)
human CD33 S131M, sequence (P20138 18-364 S131M limits assumed): as the sequence (P20138 18-364 Y49I limits assumed) above, with I32Y, S114M counted along it

human CD33 S131W = human CD33 S131W (human, UniProt P20138 18-364)
human CD33 S131W, sequence (P20138 18-364 S131W limits assumed): as the sequence (P20138 18-364 Y49I limits assumed) above, with I32Y, S114W counted along it

human CD33 P132F = human CD33 P132F (human, UniProt P20138 18-364)
human CD33 P132F, sequence (P20138 18-364 P132F limits assumed): as the sequence (P20138 18-364 Y49I limits assumed) above, with I32Y, P115F counted along it

human CD33 P132Y = human CD33 P132Y (human, UniProt P20138 18-364)
human CD33 P132Y, sequence (P20138 18-364 P132Y limits assumed): as the sequence (P20138 18-364 Y49I limits assumed) above, with I32Y, P115Y counted along it

human CD33 P132K = human CD33 P132K (human, UniProt P20138 18-364)
human CD33 P132K, sequence (P20138 18-364 P132K limits assumed): as the sequence (P20138 18-364 Y49I limits assumed) above, with I32Y, P115K counted along it

human CD33 P132N = human CD33 P132N (human, UniProt P20138 18-364)
human CD33 P132N, sequence (P20138 18-364 P132N limits assumed): as the sequence (P20138 18-364 Y49I limits assumed) above, with I32Y, P115N counted along it

human CD33 P132Q = human CD33 P132Q (human, UniProt P20138 18-364)
human CD33 P132Q, sequence (P20138 18-364 P132Q limits assumed): as the sequence (P20138 18-364 Y49I limits assumed) above, with I32Y, P115Q counted along it

human CD33 P46I = human CD33 P46I (human, UniProt P20138 18-364)
human CD33 P46I, sequence (P20138 18-364 P46I limits assumed): as the sequence (P20138 18-364 Y49I limits assumed) above, with P29I, I32Y counted along it

human CD33 P46L = human CD33 P46L (human, UniProt P20138 18-364)
human CD33 P46L, sequence (P20138 18-364 P46L limits assumed): as the sequence (P20138 18-364 Y49I limits assumed) above, with P29L, I32Y counted along it

human CD33 N20S = human CD33 N20S (human, UniProt P20138 18-364)
human CD33 N20S, sequence (P20138 18-364 N20S limits assumed): as the sequence (P20138 18-364 Y49I limits assumed) above, with N3S, I32Y counted along it

human CD33 N20L = human CD33 N20L (human, UniProt P20138 18-364)
human CD33 N20L, sequence (P20138 18-364 N20L limits assumed): as the sequence (P20138 18-364 Y49I limits assumed) above, with N3L, I32Y counted along it

human CD33 F21H = human CD33 F21H (human, UniProt P20138 18-364)
human CD33 F21H, sequence (P20138 18-364 F21H limits assumed): as the sequence (P20138 18-364 Y49I limits assumed) above, with F4H, I32Y counted along it

human CD33 Q24S = human CD33 Q24S (human, UniProt P20138 18-364)
human CD33 Q24S, sequence (P20138 18-364 Q24S limits assumed): as the sequence (P20138 18-364 Y49I limits assumed) above, with Q7S, I32Y counted along it

human CD33 Q24T = human CD33 Q24T (human, UniProt P20138 18-364)
human CD33 Q24T, sequence (P20138 18-364 Q24T limits assumed): as the sequence (P20138 18-364 Y49I limits assumed) above, with Q7T, I32Y counted along it

human CD33 Q24H = human CD33 Q24H (human, UniProt P20138 18-364)
human CD33 Q24H, sequence (P20138 18-364 Q24H limits assumed): as the sequence (P20138 18-364 Y49I limits assumed) above, with Q7H, I32Y counted along it

human CD33 Y49R, sequence (P20138 18-364 Y49R limits assumed): as the sequence (P20138 18-364 Y49I limits assumed) above, with I32R counted along it
human CD33 Y49G, sequence (P20138 18-364 Y49G limits assumed): as the sequence (P20138 18-364 Y49I limits assumed) above, with I32G counted along it
human CD33 K52S, sequence (P20138 18-364 K52S limits assumed): as the sequence (P20138 18-364 Y49I limits assumed) above, with I32Y, K35S counted along it
human CD33 Y49Q, sequence (P20138 18-364 Y49Q limits assumed): as the sequence (P20138 18-364 Y49I limits assumed) above, with I32Q counted along it

- binding result (human CD33 K52S): no binding (tested: below 20%)
- binding result (human CD33 Y49Q): no binding (tested: below 20%)
- binding result (human CD33 Y49R): no binding (tested: below 20%)
- binding result (human CD33 Y49G): no binding (tested: below 20%)
- binding result (human CD33 Y49I): no binding (tested: below 20%)
- binding result (human CD33 Y49L): no binding (tested: below 20%)
- binding result (human CD33 K52Y): no binding (tested: below 20%)
- binding result (human CD33 K52T): no binding (tested: below 20%)
- binding result (human CD33 K52I): no binding (tested: below 20%)
B1: Refmab #5 (antibody, human IgG1, V domains shown)
VH: QVQLVQSGAEVKKPGASVKVSCKASGYTFTNYDINWVRQAPGQGLEWIGWIYPGDGSTKYNEKFKAKATLTADTSTSTAYMELRSLRSDDTAVYYCASGYEDAMDYWGQGTTVTVSS
VL: DIQMTQSPSSLSASVGDRVTINCKASQDINSYLSWFQQKPGKAPKTLIYRANRLVDGVPSRFSGSGSGQDYTLTISSLQPEDFATYYCLQYDEFPLTFGGGTKVEIK

- binding result (human CD33 P48L): no binding (tested: below 20%)
- binding result (human CD33 P48K): no binding (tested: below 20%)
- binding result (human CD33 Y50R): no binding (tested: below 20%)
B2: Refmab #4 (antibody, human IgG1, V domains shown)
VH: QVQLVQSGAEVKKPGESVKVSCKASGYTFTNYGMNWVKQAPGQGLEWMGWINTYTGEPTYADKFQGRVTMTTDTSTSTAYMEIRNLGGDDTAVYYCARWSWSDGYYVYFDYWGQGTSVTVSS
VL: DIVMTQSPDSLTVSLGERTTINCKSSQSVLDSSTNKNSLAWYQQKPGQPPKLLLSWASTRESGIPDRFSGSGSGTDFTLTIDSPQPEDSATYYCQQSAHFPITFGQGTRLEIK

- binding result (human CD33 S131F): no binding (tested: below 20%)
- binding result (human CD33 S131M): no binding (tested: below 20%)
- binding result (human CD33 S131W): no binding (tested: below 20%)
- binding result (human CD33 P132F): no binding (tested: below 20%)
- binding result (human CD33 P132Y): no binding (tested: below 20%)
- binding result (human CD33 P132K): no binding (tested: below 20%)
- binding result (human CD33 P132N): no binding (tested: below 20%)
- binding result (human CD33 P132Q): no binding (tested: below 20%)
B3: Refmab #6 (antibody, human IgG1, V domains shown)
VH: QVQLQQPGAEVVKPGASVKMSCKASGYTFTSYYIHWIKQTPGQGLEWVGVIYPGNDDISYNQKFQGKATLTADKSSTTAYMQLSSLTSEDSAVYYCAREVRLRYFDVWGQGTTVTVSS
VL: EIVLTQSPGSLAVSPGERVTMSCKSSQSVFFSSSQKNYLAWYQQIPGQSPRLLIYWASTRESGVPDRFTGSGSGTDFTLTISSVQPEDLAIYYCHQYLSSRTFGQGTKLEIK

- binding result (human CD33 P46I): no binding (tested: below 20%)
- binding result (human CD33 P46L): no binding (tested: below 20%)
- binding result (human CD33 N20S): no binding (tested: below 20%)
- binding result (human CD33 N20L): no binding (tested: below 20%)
- binding result (human CD33 F21H): no binding (tested: below 20%)
- binding result (human CD33 Q24S): no binding (tested: below 20%)
- binding result (human CD33 Q24T): no binding (tested: below 20%)
- binding result (human CD33 Q24H): no binding (tested: below 20%)
B4: Refmab #3 (antibody, human IgG1, V domains shown)
VH: QVQLVQSGAEVKKPGSSVKVSCKASGYTFTDYNMHWVRQAPGQGLEWIGYIYPYNGGTGYNQKFKSKATITADESTNTAYMELSSLRSEDTAVYYCARGRPAMDYWGQGTLVTVSS
VL: DIQMTQSPSSLSASVGDRVTITCRASESVDNYGISFMNWFQQKPGKAPKLLIYAASNQGSGVPSRFSGSGSGTDFTLTISSLQPDDFATYYCQQSKEVPWTFGQGTKVEIK
